Laboratory results from patent US20250145711A1 (Janssen / Centocor, published 2025).

Experiments:
recombinant human PSMA = biological target: T1, recombinant human PSMA (human, UniProt Q04609 44-750); assay: SPR (Biacore 8K), antibody captured on anti-Fc, PSMA in solution; average of 2
T1 construct: also called hu PSMA; prostate-specific membrane antigen
Method: (§1) The binding affinity of anti-PSMA to the recombinant human or cynomolgus PSMA was determined by surface plasmon resonance (SPR) using a Biacore 8K instrument (ELN PSMA-00721). The antibodies were captured on a goat anti-Fc antibody-modified C1 chip and titrated with 3-fold serial dilutions of PSMA antigen spanning concentrations of 100 nM to 3.7 nM (human PSMA) or […] 22.2-600 nM for cyno PSMA. The association and dissociation were monitored for 3 and 60 minutes, respectively, using a flow rate of 50 μL/min. Raw binding data was referenced by subtracting the analyte binding signals from blanks and analyzed using a 1:1 Langmuir binding model by the Biacore Insight evaluation software to obtain the kinetics which were used to calculate the binding affinity. The anti-PSMA were captured using an anti-human Fc antibody and the antigens were injected in solution.

[1] = biological target: T2, recombinant cynomolgus PSMA (cynomolgus, UniProt A0A2K5VNZ0 44-750); assay: as above
T2 construct: also called cy PSMA; cyno PSMA
Method: as §1

T1 sequence (Q04609 44-750 limits assumed): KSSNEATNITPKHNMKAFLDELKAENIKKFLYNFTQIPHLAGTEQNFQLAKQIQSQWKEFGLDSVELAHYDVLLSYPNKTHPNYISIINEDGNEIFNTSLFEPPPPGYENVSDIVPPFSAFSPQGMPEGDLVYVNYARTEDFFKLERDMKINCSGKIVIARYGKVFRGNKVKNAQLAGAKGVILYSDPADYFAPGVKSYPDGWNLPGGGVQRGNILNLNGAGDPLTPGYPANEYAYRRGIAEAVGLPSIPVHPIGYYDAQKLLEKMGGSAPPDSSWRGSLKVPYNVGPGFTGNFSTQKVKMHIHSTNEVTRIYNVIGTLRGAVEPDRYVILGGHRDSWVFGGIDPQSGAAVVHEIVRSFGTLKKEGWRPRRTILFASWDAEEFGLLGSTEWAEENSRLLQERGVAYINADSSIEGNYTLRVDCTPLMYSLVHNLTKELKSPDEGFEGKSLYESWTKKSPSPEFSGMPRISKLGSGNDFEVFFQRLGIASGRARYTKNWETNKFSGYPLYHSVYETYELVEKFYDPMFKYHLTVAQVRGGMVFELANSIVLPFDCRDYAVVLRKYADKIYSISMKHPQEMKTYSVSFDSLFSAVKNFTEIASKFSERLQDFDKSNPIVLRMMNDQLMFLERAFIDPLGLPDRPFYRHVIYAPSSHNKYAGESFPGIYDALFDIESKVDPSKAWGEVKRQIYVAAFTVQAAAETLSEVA

B1: PS3B1505 (bispecific antibody, human IgG1, lambda, L234A L235A)
heavy 1: QVQLQQSGPRLVRPSQTLSLTCAISGDSVFNNNAAWSWIRQSPSRGLEWLGRTYYRSKWLYDYAVSVKSRITVNPDTSRNQFTLQLNSVTPEDTALYYCARGYSSSFDYWGQGTLVTVSSASTKGPSVFPLAPSSKSTSGGTAALGCLVKDYFPEPVTVSWNSGALTSGVHTFPAVLQSSGLYSLSSVVTVPSSSLGTQTYICNVNHKPSNTKVDKKVEPKSCDKTHTCPPCPAPEAAGGPSVFLFPPKPKDTLMISRTPEVTCVVVSVSHEDPEVKFNWYVDGVEVHNAKTKPREEQYNSTYRVVSVLTVLHQDWLNGKEYKCKVSNKALPAPIEKTISKAKGQPREPQVYTLPPSREEMTKNQVSLTCLVKGFYPSDIAVEWESNGQPENNYKTTPPVLDSDGSFLLYSKLTVDKSRWQQGNVFSCSVMHEALHNHYTQKSLSLSPGK
light 1: QSALTQPASVSGSPGQSITISCTGTSSNIGTYKFVSWYQQHPDKAPKVLLYEVSKRPSGVSSRFSGSKSGNTASLTISGLQAEDQADYHCVSYAGSGTLLFGGGTKLTVLGQPKAAPSVTLFPPSSEELQANKATLVCLISDFYPGAVTVAWKADSSPVKAGVETTTPSKQSNNKYAASSYLSLTPEQWKSHRSYSCQVTHEGSTVEKTVAPTECS
heavy 2: EVQLVESGGGLVQPGGSLRLSCAASGFTFSSYAMSWVRQAPGKGLEWVSAISGGIGSTYYADSVKGRFTISRDNSKNTLWLQMNSLRAEDTAVYYCAKDAVGATPYYFDYWGQGTLVTVSSASTKGPSVFPLAPSSKSTSGGTAALGCLVKDYFPEPVTVSWNSGALTSGVHTFPAVLQSSGLYSLSSVVTVPSSSLGTQTYICNVNHKPSNTKVDKKVEPKSCDKTHTCPPCPAPEAAGGPSVFLFPPKPKDTLMISRTPEVTCVVVSVSHEDPEVKFNWYVDGVEVHNAKTKPREEQYNSTYRVVSVLTVLHQDWLNGKEYKCKVSNKALPAPIEKTISKAKGQPREPQVYTLPPSREEMTKNQVSLTCLVKGFYPSDIAVEWESNGQPENNYKTTPPVLDSDGSFFLYSRLTVDKSRWQQGNVFSCSVMHEALHNHYTQKSLSLSPGK
light 2: QSVLTQPPSVSAAPGQKVTISCSGSSSNIGINYVSWYQQLPGTAPKLLIYDNNKRPSGIPDRFSGSKSGTSATLGITGLQTGDEADYYCGTWDSSLSAVVFGGGTKLTVLGQPKAAPSVTLFPPSSEELQANKATLVCLISDFYPGAVTVAWKADSSPVKAGVETTTPSKQSNNKYAASSYLSLTPEQWKSHRSYSCQVTHEGSTVEKTVAPTECS
notes: HC1 CD3B376-Fab x HC2 PSMB896-G100A IgG1 DuoBody; also called PS3B1505.001
Kd (recombinant human PSMA): 0.393 nM | koff (recombinant human PSMA): 9.1e-05 s⁻¹ | kon (recombinant human PSMA): 232000 M⁻¹ s⁻¹ | Kd [1]: 5.01 nM | koff [1]: 0.00124 s⁻¹ | kon [1]: 429000 M⁻¹ s⁻¹
